For assay [1], the target named is ADM (human or mouse, not stated for this control). Briefly: cell-based or functional assay.
Assay [2] addresses human recombinant adrenomedullin receptor (CRLR+RAMP3) (human).

With Non specific mouse IgG (antibody), the Maximal inhibition of ADM bioactivity (ADM-Bioassay) (%) in assay [1] came out at 0%.
Turning to “human adrenomedullin (hADM 1-52) (peptide)”, the EC50 (read off the curve), cAMP formation in assay [2] worked out at 1 nM.

For the origin of these results see patent publication US20140322225A1.
